Assay results reported in US20240317847A1 (Bayer, published 2024).
Positions count from the first letter of the chain named.

T1: human IL-11 (human, UniProt P20809 22-199)
T1 sequence: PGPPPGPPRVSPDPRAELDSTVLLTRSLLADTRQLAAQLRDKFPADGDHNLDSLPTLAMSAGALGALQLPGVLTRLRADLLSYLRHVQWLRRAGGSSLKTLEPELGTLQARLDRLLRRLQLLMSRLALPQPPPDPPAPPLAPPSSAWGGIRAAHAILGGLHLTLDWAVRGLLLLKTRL

T2: murine IL-11 (mouse, UniProt P47873 22-199)
T2 sequence: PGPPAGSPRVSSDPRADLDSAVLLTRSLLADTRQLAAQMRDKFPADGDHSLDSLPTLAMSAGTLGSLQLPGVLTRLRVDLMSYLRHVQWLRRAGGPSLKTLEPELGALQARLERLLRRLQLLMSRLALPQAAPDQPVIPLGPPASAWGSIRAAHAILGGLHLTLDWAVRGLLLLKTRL

B1: TPP-31288 (antibody, IgG4, V domains shown)
VH: EVQLLESGGGVVQPGGSLRLSCAASGFTFSHYDMNWLRQAPGKGLEWVGVISYDGSNKFYADFVKGRFTISRDNSKNTLYLQMNSLRAEDTAVYYCARTPGSHFDYWGQGTLVTVSS
VL: QSVLTQPPSASGTPGQRVTISCSGSSSNIGNNAVNWYQQLPGTAPKLLIYYDDLLPSGVPDRFSGSKSGTSASLAISGLRSEDEADYYCSAWDDSLNGVVFGGGTKLTVL
B2: TPP-31289 (antibody, IgG4, V domains shown)
VH: B1 VH with V11L, G16R
VL: B1 VL

Assays:
Test in all cases: cell-based or functional assay
human IL-11 [1] = molecular target: T1, human IL-11
murine IL-11 [2] = molecular target: T2, murine IL-11
human IL-11 [3] = molecular target: T1, human IL-11; remark: listed apart in the source
murine IL-11 [4] = molecular target: T2, murine IL-11; remark: listed apart in the source

| RGA potency (mean) (human IL-11 [1]) [nM] | RGA potency (mean) (murine IL-11 [2]) [nM] | IC50, RGA 1 (human IL-11 [3]) [nM] | IC50, RGA 2 (human IL-11 [3]) [nM] | IC50, RGA 1 (murine IL-11 [4]) [nM] | IC50, RGA 2 (murine IL-11 [4]) [nM] | Binder |
| --- | --- | --- | --- | --- | --- | --- |
| < 170 | < 170 | 67 | 141 | 47 | 23 | B1 |
| < 170 | < 170 | 61 | 76 | 27 | 23 | B2 |
